We go through one molecule from patent publication US20180086849A1 (Hoffmann-La Roche, published 2018).

One experiment addresses T1, cynomolgus MCSP D3 (cynomolgus, UniProt Q6UVK1 1582-2224 (human entry)).
T1 construct: also called cynomolgus homologue; not shown: C-terminal tag
T1 chain: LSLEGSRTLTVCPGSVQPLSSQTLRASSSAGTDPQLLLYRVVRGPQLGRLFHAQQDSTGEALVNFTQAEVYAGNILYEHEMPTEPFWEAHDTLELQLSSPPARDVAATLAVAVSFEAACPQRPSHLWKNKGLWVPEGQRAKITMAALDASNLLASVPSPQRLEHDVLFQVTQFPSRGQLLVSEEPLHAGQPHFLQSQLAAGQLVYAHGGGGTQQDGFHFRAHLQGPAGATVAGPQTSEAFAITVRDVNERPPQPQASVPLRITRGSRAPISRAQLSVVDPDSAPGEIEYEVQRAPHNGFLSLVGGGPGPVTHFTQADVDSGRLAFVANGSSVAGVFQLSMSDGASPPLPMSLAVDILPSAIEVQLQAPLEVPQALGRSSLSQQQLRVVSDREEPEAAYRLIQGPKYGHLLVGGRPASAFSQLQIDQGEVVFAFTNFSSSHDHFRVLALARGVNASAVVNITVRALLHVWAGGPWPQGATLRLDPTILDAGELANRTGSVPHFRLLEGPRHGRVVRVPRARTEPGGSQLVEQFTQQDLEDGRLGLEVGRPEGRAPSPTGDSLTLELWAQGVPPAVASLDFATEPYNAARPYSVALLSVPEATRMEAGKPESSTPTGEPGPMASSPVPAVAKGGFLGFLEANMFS
Kind of experiment: SPR (ProteOn XPR36), IgG KD against parental M4-3/ML2. As for the experimental part: (§1) Briefly, carboxymethylated dextran biosensor chips (CM5, GE Healthcare) were activated with N-ethyl-N′-(3-dimethylaminopropyl)-carbodiimide hydrochloride (EDC) and N-hydroxysuccinimide (NHS) according to the supplier's instructions. Anti-human F(ab′)2 fragment specific capture antibody was diluted with 10 mM sodium acetate, pH 5.0 at 50 μg/ml before injection at a flow rate of 10 μl/minute to achieve approximately up to 10.000 response units (RU) of coupled capture antibody. Following the injection of the capture antibody, 1 M ethanolamine was injected to block unreacted groups. For kinetics measurements, Fabs from bacterial supernatant or purified Fabs are injected at a flow rate of 10 ul/minute for 300 s and a dissociation of 300 s for capture baseline stabilization. […] The surface of the sensorchip was regenerated by injection of glycine pH 1.5 for 30 s at 90 ul/min followed by injection of NaOH for 20 s at the same flow rate. Association rates (kon) and dissociation rates (koff) were calculated using a simple one-to-one Langmuir binding model (ProteOn XPR36 Evaluation Software or Scrubber software (BioLogic)) by simultaneously fitting the association and dissociation sensorgrams. The equilibrium dissociation constant (KD) was calculated as the ratio koff/kon. […] Since CDR1 and 2 of the light chain were randomized independent from CDR3, the obtained CDRs were combined during IgG conversion.
(§2) In the IgG format affinities were measured again to the human MCSP antigen (SEQ ID NO. 390), in addition also to the cynomolgus homologue (SEQ ID NO. 389). Method exactly as described for the Fab fragments, just purified IgG from mammalian production were used.

Experiment [1] addresses T2, hu-MCSP(D3 domain)-avi-his (human, UniProt Q6UVK1 1582-2224, biotinylated where used for selection or for coupling to the SA chip).
T2 construct: also called human MCSP(D3 domain)-avi-his; human MCSP D3
T2 sequence: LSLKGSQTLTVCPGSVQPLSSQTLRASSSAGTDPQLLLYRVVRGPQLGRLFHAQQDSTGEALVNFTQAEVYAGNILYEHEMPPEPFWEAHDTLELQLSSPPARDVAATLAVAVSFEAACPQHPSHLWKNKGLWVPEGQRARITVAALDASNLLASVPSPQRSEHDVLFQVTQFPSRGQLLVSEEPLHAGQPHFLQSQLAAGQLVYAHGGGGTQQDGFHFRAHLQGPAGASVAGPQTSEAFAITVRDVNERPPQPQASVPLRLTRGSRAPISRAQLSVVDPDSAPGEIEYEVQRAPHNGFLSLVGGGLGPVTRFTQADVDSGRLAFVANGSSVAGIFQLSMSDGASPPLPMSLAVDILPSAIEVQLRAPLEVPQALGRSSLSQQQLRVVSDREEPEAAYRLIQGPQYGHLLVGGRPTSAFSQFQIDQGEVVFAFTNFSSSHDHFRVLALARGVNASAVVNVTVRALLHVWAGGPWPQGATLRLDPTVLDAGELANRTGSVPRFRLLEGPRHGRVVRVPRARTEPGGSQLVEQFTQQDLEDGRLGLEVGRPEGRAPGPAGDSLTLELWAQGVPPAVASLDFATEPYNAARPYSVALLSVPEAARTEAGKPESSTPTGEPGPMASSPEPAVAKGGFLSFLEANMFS
The experiment is described as above. On the procedure:
as §1, §2

Experiment [2] addresses T2, hu-MCSP(D3 domain)-avi-his. Put plainly: SPR (ProteOn XPR36), IgG captured, antigen as analyte. On the procedure: Briefly, carboxymethylated dextran biosensor chips (CM5, GE Healthcare) were activated with N-ethyl-N′-(3-dimethylaminopropyl)-carbodiimide hydrochloride (EDC) and N-hydroxysuccinimide (NHS) according to the supplier's instructions. Anti-human F(ab′)2 fragment specific capture antibody was diluted with 10 mM sodium acetate, pH 5.0 at 50 μg/ml before injection at a flow rate of 10 μl/minute to achieve approximately up to 10.000 response units (RU) of coupled capture antibody. Following the injection of the capture antibody, 1 M ethanolamine was injected to block unreacted groups. For kinetics measurements, Fabs from bacterial supernatant or purified Fabs are injected at a flow rate of 10 ul/minute for 300 s and a dissociation of 300 s for capture baseline stabilization. […] Association rates (kon) and dissociation rates (koff) were calculated using a simple one-to-one Langmuir binding model (ProteOn XPR36 Evaluation Software or Scrubber software (BioLogic)) by simultaneously fitting the association and dissociation sensorgrams. The equilibrium dissociation constant (KD) was calculated as the ratio koff/kon. […]
In the IgG format affinities were measured again to the human MCSP antigen (SEQ ID NO. 390), in addition also to the cynomolgus homologue (SEQ ID NO. 389). […]

B1: M4-3(A7)/ML2(C5) (IgG) (antibody, V domains shown)
VH: QVQLQESGPGLVKPSQTLSLTCTVSGGSITDGYYWNWIRQHPGKGLEWIGYITFDGRNNYNPSLKSRVTISRDTSKNQFSLKLSSVTAADTAVYYCADFDYWGQGTLVTVSS
VL: DIQMTQSPSSLSASVGDRVTITCRASRGIREYLNWYQQKPGKAPKLLIYYTGSLHSGVPSRFSGSGSGTDFTLTISSLQPEDFATYYCQQYSELPWTFGQGTKVEIK
notes: Human IgG1 format
What is called Kd is the equilibrium constant for the complex coming apart. As for B1, the “Comparative binding affinity - Fold increase over parent” value was 10 fold with cynomolgus MCSP D3 and 28.6 fold in experiment [1]. Moreover, the Kd in experiment [2] is 0.07 nM.
